Molecular target: SARS-CoV-2 S on pseudotyped lentivirus (pCMV-SARS2deltaC-gp41) (SARS-CoV-2) (UniProt P0DTC2)
Test: cell-based or functional assay

**Q.** For Nb21.t (VHH), which IC50 of pseudovirus neutralization is on record?
**A.** Its IC50 of pseudovirus neutralization is 0.244 nM.

Source: patent US20230303666A1
